Data published in patent publication US20090197798A1 (NATIONAL TAIWAN UNIVERSITY, published 2009).
Bridges are numbered along the chain shown (N, C = ends). Where no end group is shown, it is not given here.

How the values were obtained:
[1] = biological target: T1, Recombinant soluble NRP1 (sNRP1) protein containing His6 and c-Myc domain tags (human, UniProt O14786-2 22-644, limits assumed); assay: SPR
T1 construct: Expressed in NIH-3T3 cells, purified from conditioned medium by ammonium sulfate precipitation and Ni-NTA; also called recombinant human sNRP1; recombinant NRP1; not shown: His6 and c-Myc tags
T1 sequence (looked up): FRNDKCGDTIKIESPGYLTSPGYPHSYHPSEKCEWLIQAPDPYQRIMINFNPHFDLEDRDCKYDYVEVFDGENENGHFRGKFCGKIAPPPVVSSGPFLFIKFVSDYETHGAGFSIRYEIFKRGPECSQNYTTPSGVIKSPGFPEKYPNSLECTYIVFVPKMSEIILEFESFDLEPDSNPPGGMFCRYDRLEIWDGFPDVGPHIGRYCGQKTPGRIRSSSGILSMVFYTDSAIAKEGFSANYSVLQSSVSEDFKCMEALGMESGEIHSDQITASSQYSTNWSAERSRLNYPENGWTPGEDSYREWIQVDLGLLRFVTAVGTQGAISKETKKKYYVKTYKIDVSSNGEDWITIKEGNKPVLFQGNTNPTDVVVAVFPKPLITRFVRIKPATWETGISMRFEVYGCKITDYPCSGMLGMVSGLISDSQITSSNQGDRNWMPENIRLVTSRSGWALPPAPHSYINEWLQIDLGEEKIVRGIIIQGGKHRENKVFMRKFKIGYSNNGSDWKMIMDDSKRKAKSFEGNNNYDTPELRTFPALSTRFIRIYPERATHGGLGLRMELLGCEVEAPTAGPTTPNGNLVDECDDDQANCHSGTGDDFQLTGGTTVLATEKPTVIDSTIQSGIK

VEGFR2 = biological target: T2, VEGFR2 (UniProt P35968 20-764, limits assumed); assay: SPR (Biacore), receptor immobilized on sensor chip
T2 construct: also called Flk-1/KDR
T2 sequence (P35968 20-764 limits assumed): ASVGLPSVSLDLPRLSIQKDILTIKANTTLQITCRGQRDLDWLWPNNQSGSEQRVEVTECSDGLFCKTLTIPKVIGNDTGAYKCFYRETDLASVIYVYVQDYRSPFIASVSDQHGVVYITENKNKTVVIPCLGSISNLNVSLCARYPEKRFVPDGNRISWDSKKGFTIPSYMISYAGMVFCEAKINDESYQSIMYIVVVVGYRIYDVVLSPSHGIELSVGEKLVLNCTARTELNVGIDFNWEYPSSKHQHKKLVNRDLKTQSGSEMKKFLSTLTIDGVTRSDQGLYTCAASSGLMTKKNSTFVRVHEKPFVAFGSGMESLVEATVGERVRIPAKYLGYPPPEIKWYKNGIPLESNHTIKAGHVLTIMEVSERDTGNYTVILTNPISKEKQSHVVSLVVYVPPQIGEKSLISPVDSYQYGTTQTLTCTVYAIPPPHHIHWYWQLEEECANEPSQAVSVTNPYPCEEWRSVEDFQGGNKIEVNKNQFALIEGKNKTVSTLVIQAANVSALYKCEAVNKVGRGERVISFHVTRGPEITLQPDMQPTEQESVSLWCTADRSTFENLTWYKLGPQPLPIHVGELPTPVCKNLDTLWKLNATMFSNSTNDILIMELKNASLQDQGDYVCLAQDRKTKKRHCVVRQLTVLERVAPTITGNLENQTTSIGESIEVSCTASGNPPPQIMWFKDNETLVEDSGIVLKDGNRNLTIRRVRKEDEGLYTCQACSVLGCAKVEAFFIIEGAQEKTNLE

[2] = biological target: T1, Recombinant soluble NRP1 (sNRP1) …; assay: SPR (Biacore), NRP1 immobilized on CM5 chip, peptide injected, 25 C
Procedure: The binding kinetics of selected peptides with NRP1 were tested using the surface plasmon resonance based measuring system (Biacore AB) at 25° C. Recombinant NRP1 was immobilized on CM5 sensor chips by amine coupling at 400 response units using the amine coupling kit (Biacore) according to the manufacturer's instructions. Binding was detected in resonance units after injecting various concentrations of peptide at a flow rate of 30 μL/min. Sensograms of association and dissociation were recorded and analyzed using BIAevaluation software 3.0 (Biacore AB).
To identify whether any new signature motif can bind and inhibit NRP1-mediated invasion, mammalian cell-expressed NRP1 proteins were used as bait to screen a random cyclic 7-mer peptide library for NRP1-binding peptides. A Ph.D. C7C phage display library containing 10¹¹ random cyclic 7-amino acid peptides was applied for biopanning. After four rounds of screening, 63 clones were isolated. […] A consensus motif, -RRXR-, was found in nine clones by MULTALIN program alignment (Table 3). […] Surface plasmon resonance was used to measure the real-time association and dissociation of the binding of RRXR-containing peptides to NRP1. […] The slightly higher binding affinity of DG1 to NRP1 was due to a more favorable kₐ.

B1: Human VEGF165 (ligand, UniProt P15692-4 27-191, looked up)
chain: APMAEGGGQNHHEVVKFMDVYQRSYCHPIETLVDIFQEYPDEIEYIFKPSCVPLMRCGGCCNDEGLECVPTEESNITMQIMRIKPHQGQHIGEMSFLQHNKCECRPKKDRARQENPCGPCSERRKHLFVQDPQTCKCSCKNTDSRCKARQLELNERTCRCDKPRR
notes: Bought from PeproTech; also called hVEGF
Q: B1 was tested. Which Kd [1] did it give?
A: 0.125 µM

B2: cyclic peptide DG1 (CRRPRMLTC) (peptide)
peptide: CRRPRMLTC
modifications: disulfide 1-9 (inferred)
notes: Chemically synthesized cyclic 9-mer (Digitalgene, Taiwan); Its core matches phage clone 4-1
Q: Which results are given for B2?
A: binding result (VEGFR2): no binding; Kd [2]: 1.4 µM; koff [2]: 0.00172 s⁻¹; kon [2]: 1230 M⁻¹ s⁻¹

B3: cyclic peptide DG2 (CRSRRIRLC) (peptide)
peptide: CRSRRIRLC
modifications: disulfide 1-9 (inferred)
notes: Chemically synthesized cyclic 9-mer (Digitalgene, Taiwan); Its core matches phage clone 4-5
Q: Does B3 bind (VEGFR2)?
A: no binding

Q: And the Kd [2]?
A: 5.37 µM

Q: What about the koff [2] of the same binder?
A: 0.000663 s⁻¹

Q: What about the kon [2] of the same binder?
A: 123 M⁻¹ s⁻¹
